Here are results for five substances from article PMC6391532.

Common to all, as to test: SEC
(In general: In gel filtration, larger molecules generally elute earlier.)

The target of assay [1] is DENV2C I88N (dengue virus 2).
The target of assay [2] is DENV2C L50S (dengue virus 2).
The target of assay [3] is DENV2C L54S (dengue virus 2).
The target in assay [4] is DENV2C L81N (dengue virus 2).
The target of assay [5] is dengue virus 2 capsid protein (DENV2C), wild type (dengue virus 2).

What is called stoichiometry N is the number of molecules, sites or subunits per partner or assembly. Substance DENV2C I88N (natural protein) gave a stoichiometry N in assay [1] of 2.
For DENV2C L50S (natural protein), the stoichiometry N in assay [2] amounted to 2.
DENV2C L54S (natural protein) came in with a stoichiometry N in assay [3] of 2.
DENV2C L81N (natural protein) had a stoichiometry N in assay [4] of 2.
“dengue virus 2 capsid protein (DENV2C), wild type (natural protein)” came in with a stoichiometry N in assay [5] of 2.
